Consider eight molecules from paper PMC11729338, “Molecular Characterization and Interaction between Human VEGF-D and VEGFR-3” (Journal of Microbiology and Biotechnology, 2024).

Assay [1] has as its target T1, His-tagged human VEGFR-3 (residues 30-326) (human, UniProt P35916 30-326).
T1 construct: Vascular endothelial growth factor receptor 3 (VEGFR-3), human, residues 30-326 (extracellular Ig domains 1-3); The primers fit P30 to I326; the reverse primer has no stop codon, so vector residues and a second His tag may follow at the C-terminus (my surmise); also called Wild-type VEGFR-3; extracellular domains 1, 2 and 3
T1 sequence (looked up): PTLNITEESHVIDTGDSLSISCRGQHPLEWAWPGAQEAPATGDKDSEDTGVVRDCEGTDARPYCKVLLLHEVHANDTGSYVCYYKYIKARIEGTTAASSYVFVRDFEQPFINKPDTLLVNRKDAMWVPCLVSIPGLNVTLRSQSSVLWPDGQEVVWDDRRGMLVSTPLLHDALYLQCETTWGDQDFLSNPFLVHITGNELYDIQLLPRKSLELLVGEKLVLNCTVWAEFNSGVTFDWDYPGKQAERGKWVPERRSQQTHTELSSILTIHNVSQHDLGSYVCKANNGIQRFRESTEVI
Kind of assay: SPR; VEGFR-3 immobilised on a CM5 chip by amine coupling (2,300 response units); Biacore T100, 25°C; running buffer 50 mM HEPES (pH 7.7), 50 mM NaCl or 50 mM Tris-HCl (7.82), 50 mM NaCl; VEGF-D or mutant injected at 0.125, 0.25, 0.5, 1 uM, 10 ul/min. To be noted: both partners purified. (In SPR one partner is held on a chip, and binding of the other changes the refractive index at the surface.)

The target in assay [2] is T2, His-tagged VEGFR-3 (residues 30-326) (human, UniProt P35916 30-326).
T2 construct: human VEGFR-3, residues 30-326 (extracellular domains 1, 2 and 3); Cloned in pET-28a; In the functional rows it stands for the VEGFR-3 of MDA-MB-231 cells; also called His-VEGFR-3; extracellular domains 1, 2, and 3; source: for SEC co-lysed with His-tagged VEGF-D cells and purified together on Ni-NTA
T2 sequence (looked up): T1 sequence (looked up)
Put plainly: pull-down; 50 ug GST-tagged VEGF-D or mutant on Glutathione Sepharose 4 Fast Flow beads, 50 ug His-VEGFR-3 in 1X PBS, on ice overnight; eluted with 30 mM glutathione; Western blot with anti-His and anti-GST. Conditions: both partners purified. (In general: Immunoblotting shows a protein as a band on a membrane.)

Assay [3] addresses T2, His-tagged VEGFR-3 (residues 30-326). Kind of assay: SPR; VEGFR-3 immobilised on a CM5 chip by amine coupling (2,300 response units); VEGF-D or mutant injected at 0.125, 0.25, 0.5 and 1 uM, 10 ul/min; Biacore T100, 25 °C; 50 mM HEPES (pH 7.7), 50 mM NaCl or 50 mM Tris-HCl (7.82), 50 mM NaCl. To be noted: both partners purified.
The target is the same in assay [4]. Put plainly: cell-based or functional assay.
The target is the same in assay [5]. Put plainly: SEC; His-tagged VEGF-D and His-tagged VEGFR-3 cells co-lysed, purified together on Ni-NTA, incubated 24 h at 4 °C; Superdex 200 10/300 GL, 50 mM Tris-HCl (pH 7.82), 200 mM NaCl, 0.1% glycerol, sample 17 mg/ml, 0.4 ml/min; fractions by SDS-PAGE. Conditions: partners not purified. A general note: SEC sorts molecules by how far they enter the pores of the column.

Numbering of substitutions follows the chain as printed. In names and notes the source's numbering stands.

B1: His-tagged wild-type human VEGF-D (residues 89-205) (ligand, UniProt O43915 89-205, looked up)
chain: FAATFYDIETLKVIDEEWQRTQCSPRETCVEVASELGKSTNTFFKPPCVNVFRCGGCCNEESLICMNTSTSYISKQLFEISVPLTSVPELVPVKVANHTGCKCLPTAPRHPYSIIRR
notes: Vascular endothelial growth factor D (VEGF-D), human, residues 89-205 (major mature form); Cloned in pET-28a; also called Wild-type VEGF-D; major form
In assay [1], B1 yielded a Kd of 268 nM, a koff of 0.00115 s⁻¹ and a kon of 4310 M⁻¹ s⁻¹.

B2: GST-tagged VEGF-D (residues 89-205) I102A (ligand, human, UniProt O43915 89-205, looked up)
chain: B1 chain with I14A
notes: human VEGF-D, residues 89-205, I102A; Cloned in pGEX-4T-1
For the molecule B2, the binding result in assay [2] is “binds”.

B3: His-tagged VEGF-D (residues 89-205), wild type (ligand, human, UniProt O43915 89-205, looked up)
chain: B1 chain
notes: human VEGF-D, residues 89-205 (major mature form); Cloned in pET-28a; also called wild-type VEGF-D; mature VEGF-D; source: for SEC co-lysed with His-tagged VEGFR-3 cells and purified together on Ni-NTA
In the case of B3, in assay [3], the Kd came out at 270 nM. The “MTT cell viability of MDA-MB-231 cells, 0-600 ng VEGF-D, 24 h; EC50” value in assay [4] was 238 ng. The “stoichiometry N” value in assay [5] is 1.

B4: GST-tagged VEGF-D (residues 89-205) E105A (ligand, human, UniProt O43915 89-205, looked up)
chain: B1 chain with E17A
notes: human VEGF-D, residues 89-205, E105A; Cloned in pGEX-4T-1
B4: in assay [2], the binding result is reported as “binds”.

B5: His-tagged VEGF-D (residues 89-205) I102A/E105A (ligand, human, UniProt O43915 89-205, looked up)
chain: B1 chain with I14A, E17A
notes: Vascular endothelial growth factor D (VEGF-D), human, residues 89-205, double mutant I102A/E105A; same limits as Dm1 (see its note on the primers); source: E. coli BL21 (DE3), purified
As for B5, in assay [1], binding was put at a Kd of 956 nM, the koff was determined as 0.0015 s⁻¹ and the on-rate (kon) is 1570 M⁻¹ s⁻¹.

B6: His-tagged VEGF-D (residues 89-205) I102A/E105A (ligand, human, UniProt O43915 89-205, looked up)
chain: B1 chain with I14A, E17A
notes: human VEGF-D, residues 89-205, I102A and E105A; also called double mutated form of VEGF-D; source: E. coli BL21 (DE3), purified
In turn, B6 registered a Kd in assay [3] of 960 nM.

B7: His-tagged VEGF-D (residues 89-205) D103A/Q110A (ligand, human, UniProt O43915 89-205, looked up)
chain: B1 chain with D15A, Q22A
notes: Vascular endothelial growth factor D (VEGF-D), human, residues 89-205, double mutant D103A/Q110A; same limits as Dm1 (see its note on the primers); source: E. coli BL21 (DE3), purified
In the case of B7, in assay [1], binding was characterised by a dissociation constant (Kd) of 533 nM, the koff turned out to be 0.00103 s⁻¹ and the kon amounted to 1940 M⁻¹ s⁻¹.

B8: His-tagged VEGF-D (residues 89-205) D103A/Q110A (ligand, human, UniProt O43915 89-205, looked up)
chain: B1 chain with D15A, Q22A
notes: human VEGF-D, residues 89-205, D103A and Q110A; also called D103A/Q110A mutant; double mutated form of VEGF-D; source: E. coli BL21 (DE3), purified
B8 returned a Kd in assay [3] of 530 nM.

The Kd is the constant that tells how readily two partners part at equilibrium. Usually koff stands for a measure of how fast the partners let go of each other. Low values mean a long-lived complex, high ones a short-lived complex. As usually defined, the kon is the rate constant with which the complex forms. High values mean faster complex formation, low ones slower complex formation. Usually stoichiometry N stands for the number of molecules, sites or subunits per partner or assembly.
